Source: the supplement of paper PMC9112550, “Optimization of the antimicrobial peptide Bac7 by deep mutational scanning” (BMC Biology, 2022)

Test system: Escherichia coli TOP10
Test: shrunken log2 fold change of peptide-encoding DNA abundance (4.5 h post-induction vs induction); higher = less antimicrobial activity (less host growth inhibition)
Settings: time post-induction: 4.5 h; library: site-saturation at positions 5, 18, 19, 20
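Further: peptides expressed intracellularly from a pBAD plasmid library in pooled LB shake-flask culture, induced with 0.3% L-arabinose, DNA abundance read by NGS, three biological replicates, DESeq2 with apeglm shrinkage.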

| Sequence | shrunken log2 fold change |
| --- | --- |
| RRIRDRPPRLPRPRPRPTYMPRP | -0.248 |
| RRIRYRPPRLPRPRPRPATKPRP | 0.171 |
| RRIRHRPPRLPRPRPRPNHDPRP | -0.719 |
| RRIRVRPPRLPRPRPRPTWDPRP | 0.178 |
| RRIRDRPPRLPRPRPRPVTPPRP | 0.214 |
| RRIRKRPPRLPRPRPRPGNVPRP | 0.00843 |
| RRIRFRPPRLPRPRPRPHWSPRP | -0.54 |
| RRIRARPPRLPRPRPRPHHTPRP | -0.364 |
| RRIRLRPPRLPRPRPRPCKLPRP | -0.114 |
| RRIRKRPPRLPRPRPRPFCEPRP | -0.0765 |
| RRIRRRPPRLPRPRPRPEYTPRP | 0.166 |
| RRIRGRPPRLPRPRPRPKTAPRP | 0.808 |
| RRIRWRPPRLPRPRPRPIRWPRP | 0.0855 |
| RRIRCRPPRLPRPRPRPAGTPRP | -0.202 |
| RRIRARPPRLPRPRPRPTYPPRP | -0.0587 |
| RRIRMRPPRLPRPRPRPILDPRP | -0.0606 |
| RRIRDRPPRLPRPRPRPICQPRP | 0.0244 |
| RRIRVRPPRLPRPRPRPPDCPRP | -0.0843 |
| RRIRDRPPRLPRPRPRPCGKPRP | 0.2 |
| RRIRFRPPRLPRPRPRPTYQPRP | -0.393 |
| RRIRKRPPRLPRPRPRPNNGPRP | -0.324 |
| RRIRQRPPRLPRPRPRPFTMPRP | -0.141 |
| RRIRCRPPRLPRPRPRPICKPRP | 0.0601 |
| RRIRVRPPRLPRPRPRPDNWPRP | -0.343 |
| RRIRTRPPRLPRPRPRPGPWPRP | 0.215 |

| Sequence | shrunken log2 fold change |
| --- | --- |
| RRIRCRPPRLPRPRPRPRYSPRP | -0.712 |
| RRIRTRPPRLPRPRPRPGVMPRP | 0.0539 |
| RRIRGRPPRLPRPRPRPPDEPRP | 1.27 |
| RRIRDRPPRLPRPRPRPAHKPRP | -0.0546 |
| RRIRCRPPRLPRPRPRPYYLPRP | -0.38 |
| RRIRSRPPRLPRPRPRPLKEPRP | 0.176 |
| RRIRSRPPRLPRPRPRPPSHPRP | 0.103 |
| RRIRARPPRLPRPRPRPRYWPRP | 0.213 |
| RRIRRRPPRLPRPRPRPGAVPRP | 0.431 |
| RRIRSRPPRLPRPRPRPHWMPRP | 0.0168 |
| RRIRNRPPRLPRPRPRPMCFPRP | -0.114 |
| RRIRRRPPRLPRPRPRPDFLPRP | 1.31 |
| RRIRKRPPRLPRPRPRPNIHPRP | -0.112 |
| RRIRMRPPRLPRPRPRPLNQPRP | -0.0442 |
| RRIRYRPPRLPRPRPRPRFGPRP | 0.345 |
| RRIRFRPPRLPRPRPRPEDCPRP | 0.121 |
| RRIRARPPRLPRPRPRPFSLPRP | 0.0486 |
| RRIRHRPPRLPRPRPRPTDNPRP | -0.177 |
| RRIRERPPRLPRPRPRPTREPRP | 0.329 |
| RRIRFRPPRLPRPRPRPHEIPRP | -0.0536 |
| RRIRKRPPRLPRPRPRPHLKPRP | 0.0906 |
| RRIRYRPPRLPRPRPRPWPHPRP | 0.0143 |
| RRIRDRPPRLPRPRPRPMHTPRP | 0.0757 |
| RRIRVRPPRLPRPRPRPRQDPRP | 0.582 |
| RRIRDRPPRLPRPRPRPRDDPRP | -0.0224 |
